B3: Rad51 (natural protein)
chain: MADTEVEMQVSAADTNNNENGQAQSNYEYDVNVQDEEDEAAAGPMPLQMLEGNGITASDIKKIHEAGYYTVESIAYTPKRQLLLIKGISEAKADKLLGEASKLVPMGFTTATEYHIRRSELITITTGSKQLDTLLQGGVETGSITELFGEFRTGKSQICHTLAVTCQLPIDMGGGEGKCLYIDTEGTFRPVRLLAVADRYGLNGEEVLDNVAYARAYNADHQLELLQQAANMMSESRFSLLVVDSCTALYRTDFSGRGELSARQMHLARFMRTLQRLADEFGIAVVITNQVVAQVDGISFNPDPKKPIGGNILAHSSTTRLSLRKGRGEQRICKIYDSPCLPESEAIFAINSDGVGDPKEIIAPV

Columns and labels:
[1] = target: T1, Sfr1, wild type (S. pombe, UniProt Q9USV1 1-299); test: SEC
T1 sequence: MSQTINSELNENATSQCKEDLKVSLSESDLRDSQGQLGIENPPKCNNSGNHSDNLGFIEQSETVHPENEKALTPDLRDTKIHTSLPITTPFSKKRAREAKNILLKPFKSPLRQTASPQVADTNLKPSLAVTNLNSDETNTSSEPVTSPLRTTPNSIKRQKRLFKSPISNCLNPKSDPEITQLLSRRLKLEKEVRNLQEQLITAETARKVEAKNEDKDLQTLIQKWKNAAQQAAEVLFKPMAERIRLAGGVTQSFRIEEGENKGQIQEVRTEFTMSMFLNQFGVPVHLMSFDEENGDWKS

[2] = target: B3; test: pull-down
[3] = target: T2, Swi5-Sfr1 complex, wild type (S. pombe, UniProt Q9USV1;Q9UUB7); test: pull-down
T2 sequence 1: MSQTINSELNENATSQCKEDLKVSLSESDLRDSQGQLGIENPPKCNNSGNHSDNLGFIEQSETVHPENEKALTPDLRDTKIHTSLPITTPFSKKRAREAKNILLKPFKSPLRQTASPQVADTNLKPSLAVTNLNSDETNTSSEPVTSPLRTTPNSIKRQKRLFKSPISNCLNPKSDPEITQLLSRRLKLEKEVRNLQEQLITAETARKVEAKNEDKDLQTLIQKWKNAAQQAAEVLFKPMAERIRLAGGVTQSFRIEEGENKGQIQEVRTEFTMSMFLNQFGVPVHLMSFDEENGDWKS
T2 sequence 2: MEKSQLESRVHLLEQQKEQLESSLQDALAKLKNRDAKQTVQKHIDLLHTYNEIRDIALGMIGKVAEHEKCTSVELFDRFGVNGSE

B1: Swi5 (natural protein)
chain: MEKSQLESRVHLLEQQKEQLESSLQDALAKLKNRDAKQTVQKHIDLLHTYNEIRDIALGMIGKVAEHEKCTSVELFDRFGVNGSE
B1: binds [1].

B2: Swi5-Sfr1 phosphomimetic mutant complex (complex)
chain 1: MSQTINSELNENATSQCKEDLKVDLSESDLRDSQGQLGIENPPKCNNSGNHSDNLGFIEQSETVHPENEKALDPDLRDTKIHTSLPITTPFSKKRAREAKNILLKPFKDPLRQTADPQVADTNLKPSLAVTNLNSDETNTSSEPVTSPLRTTPNSIKRQKRLFKDPISNCLNPKSDPEITQLLSRRLKLEKEVRNLQEQLITAETARKVEAKNEDKDLQTLIQKWKNAAQQAAEVLFKPMAERIRLAGGVTQSFRIEEGENKGQIQEVRTEFTMSMFLNQFGVPVHLMSFDEENGDWKS
chain 2: MEKSQLESRVHLLEQQKEQLESSLQDALAKLKNRDAKQTVQKHIDLLHTYNEIRDIALGMIGKVAEHEKCTSVELFDRFGVNGSE
B2 was tested, and the “fold reduction in co-precipitation with Rad51 against wild type” value [2] was roughly 5 fold.

B3: binds [3].

Reference: article doi:10.1101/2023.03.23.533938 (bioRxiv, 2023)
